Data from US20250235501A1 (UNIVERSITY OF CONNECTICUT, published 2025).

Molecular target: T1, Endogenous TRPM2 of mouse brain and cultured mouse cortical neurons (mouse, UniProt Q91YD4 1-1506)
T1 construct: whole, on cells
Assay: co-IP with anti-TRPM2, western blot, PKCγ/TRPM2 ratio, brain tissue
Method: Thus, whether PKC interacts with TRPM2 was investigated.
NP-40 lysis buffer ([…], 150 mM NaCl, 1 mM EDTA, 50 mM Tris, pH=8.0) containing proteinase inhibitors (Sigma-Aldrich, 539131-10VL) and phosphatase inhibitors (Thermal Fisher Scientific, 78428) was used to lyse both cultured cells and frozen brain tissue. For transfected cells, proteins were extracted 36 hours after transfection. Cell and tissue lysate were lysed by ultrasound using an ultrasonic cleaner (Thermal Fisher Scientific) filled with ice-cold water for 30 min. After incubated on ice for 1 h, lysate was centrifuged at 13000 g for 30 min and supernatant was collected. Protein concentration was measured using Pierce™ Rapid Gold BCA Protein Assay Kit (Thermal Fisher Scientific, A53225). 300 μg of protein was taken and diluted using NP-40 lysis buffer to make a total volume of 500 μl. Unused protein was allocated and frozen at −80° C. for future use. Appropriate amount of antibody was added based on instruction. After protein-antibody mixture was incubated on ice for 2 h, 25 μL of pre-washed Protein A/G PLUS-Agarose (Santa Cruz Biotechnology, sc-2003) was added, and the whole mixture was incubated at 4° C. for overnight. Then the mixture was centrifuged at 2500 g for Imin to get agarose beads. […] Then samples were ready for western blotting analysis.

T1 sequence (Q91YD4 whole entry): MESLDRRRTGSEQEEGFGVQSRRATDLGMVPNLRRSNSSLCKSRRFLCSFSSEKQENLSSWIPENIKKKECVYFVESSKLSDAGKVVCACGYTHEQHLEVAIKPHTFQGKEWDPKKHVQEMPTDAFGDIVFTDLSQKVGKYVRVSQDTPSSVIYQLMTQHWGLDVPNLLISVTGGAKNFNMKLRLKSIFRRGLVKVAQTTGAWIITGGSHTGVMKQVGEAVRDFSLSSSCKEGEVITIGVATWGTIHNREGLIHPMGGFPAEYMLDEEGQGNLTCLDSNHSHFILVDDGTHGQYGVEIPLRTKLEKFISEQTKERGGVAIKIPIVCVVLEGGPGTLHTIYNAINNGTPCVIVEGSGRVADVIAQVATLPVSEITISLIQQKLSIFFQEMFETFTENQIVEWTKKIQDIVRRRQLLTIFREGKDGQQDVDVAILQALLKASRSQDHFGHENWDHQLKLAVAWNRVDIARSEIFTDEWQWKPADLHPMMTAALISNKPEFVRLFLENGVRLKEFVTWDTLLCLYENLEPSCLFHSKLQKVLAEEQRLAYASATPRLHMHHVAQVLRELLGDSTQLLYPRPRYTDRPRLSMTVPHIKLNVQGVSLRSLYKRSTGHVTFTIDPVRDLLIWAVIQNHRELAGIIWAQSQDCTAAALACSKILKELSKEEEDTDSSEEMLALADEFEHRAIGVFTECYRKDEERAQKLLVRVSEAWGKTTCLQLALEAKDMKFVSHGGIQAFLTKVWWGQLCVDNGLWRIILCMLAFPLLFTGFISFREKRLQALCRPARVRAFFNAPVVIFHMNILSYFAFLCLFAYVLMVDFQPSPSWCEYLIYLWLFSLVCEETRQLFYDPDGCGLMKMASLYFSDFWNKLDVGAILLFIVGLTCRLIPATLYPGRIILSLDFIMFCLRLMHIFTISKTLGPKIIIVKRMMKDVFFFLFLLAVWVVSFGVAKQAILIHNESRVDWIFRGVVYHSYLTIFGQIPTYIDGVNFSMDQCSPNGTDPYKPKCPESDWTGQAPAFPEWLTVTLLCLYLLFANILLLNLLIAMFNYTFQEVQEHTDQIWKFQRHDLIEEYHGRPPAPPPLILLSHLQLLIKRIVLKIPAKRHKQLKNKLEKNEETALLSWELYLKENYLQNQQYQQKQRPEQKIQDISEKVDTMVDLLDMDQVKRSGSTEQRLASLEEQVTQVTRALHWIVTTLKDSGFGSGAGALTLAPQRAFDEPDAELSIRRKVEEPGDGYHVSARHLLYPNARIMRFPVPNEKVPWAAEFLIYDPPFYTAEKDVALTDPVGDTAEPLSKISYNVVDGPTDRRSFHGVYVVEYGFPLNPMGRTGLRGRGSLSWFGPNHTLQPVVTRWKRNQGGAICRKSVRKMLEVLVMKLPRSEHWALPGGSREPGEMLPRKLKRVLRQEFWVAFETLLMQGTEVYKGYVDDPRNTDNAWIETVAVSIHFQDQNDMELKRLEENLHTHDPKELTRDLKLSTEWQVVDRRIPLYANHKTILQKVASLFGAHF

amount of PKCγ pulled down by anti-TRPM2, MCAO against sham mice: ~1.5 fold
B1: Endogenous PKCγ of mouse brain and cultured mouse cortical neurons (enzyme)
chain: not shown
notes: whole, on cells; also called neuron-specific PKC
